{
  "source": "patent US20190031785A1",
  "about": "(COMPASS THERAPEUTICS, published 2019)",
  "key": {"[1]": {"biological_target": "T1, Recombinant human PD-1 Fc fusion protein (Sino Biological) (human, UniProt Q15116 25-167)", "T1 construct": "not shown: Fc part of a bought fusion protein", "T1 sequence (Q15116 25-167 limits assumed)": "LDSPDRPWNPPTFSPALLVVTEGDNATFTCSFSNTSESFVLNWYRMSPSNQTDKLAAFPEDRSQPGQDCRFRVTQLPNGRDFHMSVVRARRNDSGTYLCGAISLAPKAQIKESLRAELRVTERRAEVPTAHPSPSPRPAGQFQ", "assay": "BLI (ForteBio Octet); PD-1 Fc on Protein A sensors, 100 nM construct; column 'Affinity (nM)'", "method": "(§1) Antigen binding of MIAC constructs were analyzed using ForteBio Octet. […] All antigens were reconstituted in PBS at the final concentration of 0.25 ug/ul. […] Association proceeded by dipping sensors in 100 nM MIAC constructs for 5 minutes and disassociation occurred in blank kinetics buffer for 5 minutes. For CD3 epsilon binding, antigen was immobilized on Ni-NTA sensors; association was performed in 50 nM MIAC constructs. Binding data were analyzed using ForteBio Data Analysis 9.0 software."}, "[2]": {"biological_target": "T2, Recombinant human CD137 Fc fusion protein (Sino Biological) (human, UniProt Q07011 24-186)", "T2 construct": "not shown: Fc part of a bought fusion protein", "assay": "ForteBio Octet bio-layer interferometry, sequential steps on one sensor: Her2 loading, blocking antibody, PID7, PD-1 (printed 'PI-1'), CD137"}, "[3]": {"biological_target": "T2, Recombinant human CD137 Fc fusion …", "assay": "BLI (ForteBio Octet); CD137 Fc on Protein A sensors, 100 nM construct; column 'Affinity (nM)'", "method": "as §1"}, "[4]": {"biological_target": "T3, Recombinant human Her2 Fc fusion protein (Sino Biological) (human, UniProt P04626 23-652)", "T3 construct": "not shown: Fc part of a bought fusion protein", "assay": "BLI (ForteBio Octet); antigen-Fc on Protein A sensors, construct in solution; NB: no binding detected", "method": "as §1"}, "[5]": {"biological_target": "T1, Recombinant human PD-1 Fc fusion …", "assay": "BLI (ForteBio Octet); antigen-Fc on Protein A sensors, construct in solution; NB: no binding detected", "method": "as §1"}, "[6]": {"biological_target": "T1, Recombinant human PD-1 Fc fusion …", "assay": "ForteBio Octet bio-layer interferometry, sequential steps on one sensor: Her2 loading, blocking antibody, PID92, PD-1 (printed 'PI-1'), CD137"}, "[7]": {"biological_target": "T2, Recombinant human CD137 Fc fusion …", "assay": "BLI (ForteBio Octet); antigen-Fc on Protein A sensors, construct in solution; NB: no binding detected", "method": "as §1"}},
  "data": [
    {"binder": "PID-7 (bispecific Her2/PD-1 MIAC; pembrolizumab IgG1 with trastuzumab scFv at the heavy chain C-termini) (bispecific antibody, also called α-Her2/α-PD-1) heavy: not shown light: EIVLTQSPATLSLSPGERATLSCRASKGVSTSGYSYLHWYQQKPGQAPRLLIYLASYLESGVPARFSGSGSGTDFTLTISSLEPEDFAVYYCQHSRDLPLTFGGGTKVEIKRTVAAPSVFIFPPSDEQLKSGTASVVCLLNNFYPREAKVQWKVDNALQSGNSQESVTEQDSKDSTYSLSSTLTLSKADYEKHKVYACEVTHQGLSSPVTKSFNRGEC", "values": [
      {"measurement": "Kd", "setting": "[1]", "result": 0.12, "unit": "nM"},
      {"measurement": "binding result", "setting": "[2]", "result": "no binding"}
    ]},
    {"binder": "PID-90 (monospecific anti-CD137; urelumab Fab domain, human IgG1) (antibody, V domains shown, also called PID90 (CD137)) VH: QVQLQQWGAGLLKPSETLSLTCAVYGGSFSGYYWSWIRQSPEKGLEWIGEINHGGYVTYNPSLESRVTISVDTSKNQFSLKLSSVTAADTAVYYCARDYGPGNYDWYFDLWGRGTLVTVSS VL: EIVLTQSPATLSLSPGERATLSCRASQSVSSYLAWYQQKPGQAPRLLIYDASNRATGIPARFSGSGSGTDFTLTISSLEPEDFAVYYCQQRSNWPPALTFGGGTKVEIKR", "values": [
      {"measurement": "Kd", "setting": "[3]", "result": 0.7, "unit": "nM"},
      {"measurement": "binding result", "setting": "[4]", "result": "no binding (tested: 100 nM)"},
      {"measurement": "binding result", "setting": "[5]", "result": "no binding (tested: 100 nM)"}
    ]},
    {"binder": "PID-92 (bispecific Her2/CD137 MIAC; urelumab IgG1 with trastuzumab scFv at the heavy chain C-termini) (bispecific antibody, also called α-Her2/α-CD137 MIAC; PID92 [Her2/CD137]) heavy: not shown light: not shown", "values": [
      {"measurement": "Kd", "setting": "[3]", "result": 0.23, "unit": "nM"},
      {"measurement": "binding result", "setting": "[6]", "result": "no binding"}
    ]},
    {"binder": "PID-2 (monospecific anti-PD-1; pembrolizumab Fab domain, human IgG1) (antibody, V domains shown, also called PID2 (PD-1)) VH: QVQLVQSGVEVKKPGASVKVSCKASGYTFTNYYMYWVRQAPGQGLEWMGGINPSNGGTNFNEKFKNRVTLTTDSSTTTAYMELKSLQFDDTAVYYCARRDYRFDMGFDYWGQGTTVTVSS VL: EIVLTQSPATLSLSPGERATLSCRASKGVSTSGYSYLHWYQQKPGQAPRLLIYLASYLESGVPARFSGSGSGTDFTLTISSLEPEDFAVYYCQHSRDLPLTFGGGTKVEIKR", "values": [
      {"measurement": "binding result", "setting": "[7]", "result": "no binding (tested: 100 nM)"},
      {"measurement": "binding result", "setting": "[4]", "result": "no binding (tested: 100 nM)"}
    ]}
  ]
}
